Test results as given in patent US20210115098A1.

Target: activin-like kinase 4 and/or 5 receptor (ALK4/5)
Test: cell-based or functional assay

Cumulin-like GDF9_H369N (Mutant 7) (from UniProt O60383 30-318) (ligand)
Smad-2/3 responsive luciferase reporter, maximal response at 50 ng/mL relative to Mutant 1: 10 % reduction
